Test results published in paper PMC2891831, “Insight into the Mechanisms of Adenovirus Capsid Disassembly from Studies of Defensin Neutralization” (PLoS Pathogens, 2010).

Key:
Ad5.eGFP = Ad5.eGFP infection, eGFP-positive cells by flow cytometry; assay type: cell-based, human adenovirus; settings: 15 µM defensin, percent eGFP positive cells vs. no defensin, at least three independent experiments
From the text: To gain further insight into the defensin-HAdV interaction, we assessed the requirement for two conserved structural elements on the anti-AdV activity of HD5. All defensins have three disulfide bonds (Figure 3A). […] The antibacterial properties of defensins, which are dependent upon protein-lipid interactions, are not uniformly conformation dependent [27]–[29]. […] In contrast, defensin-related chemokine activity, which relies on protein-protein interactions, is dependent on defensin conformation. We hypothesized that the defensin-capsid interaction for sensitive serotypes would likely be dependent upon defensin conformation, as this would be more typical for protein-protein interactions. […]
Figure 3 HD5 antiviral activity is structure dependent. […] C) Binding of Alexa Fluor 488-labeled HAdV-5 to cells was assessed after incubation with or without 20 µM HD5 or HD5-Abu and in competition with 100 nM 5FK or 16 FK. Data are the mean fold increase in geometric mean fluorescence compared to cells alone and are of at least 10,000 cells from each of three independent experiments ± SD.
To test the activity of HD5 derivates, Ad5.eGFP was incubated with 15 µM of HD5, HD5-Abu, or HD5-E14Q. Infectivity was assessed by enumerating eGFP-positive cells by flow cytometry as described.

19cF = assay: Infection assay, 19cF virus chimera; assay type: cell-based, human adenovirus
From the text: The availability of sensitive (e.g., HAdV-5) and resistant (e.g., HAdV-19c) serotypes provided a means to test this HD5 neutralization model by generating virus chimeras. Initially, virus chimeras were constructed by replacing the sequences for fiber, penton base, and hexon in the HAdV-5 genome with the corresponding sequences from HAdV-19c. Consistent with previous studies, [38], the virus chimera containing the HAdV-19c hexon is not viable; however, constructs containing the HAdV-19c fiber (19cF) or penton base (19cPB) are capable of replicating. […] In contrast, the 19cPB virus has an intermediate phenotype.
Figure 6 Neutralization determinants are located in fiber and penton base. A) Schematic of chimeric viruses. […] B) Each of the chimeric viruses was incubated with 5 µM (grey) or 10 µM (black) HD5 and assessed for infectivity on A549 cells. […] The upper limit for quantification of this assay is 200%.
(§1) Prior to use in this assay, each virus stock was titrated on A549 cells. […] In parallel, wells were infected with two-fold serial dilutions of each virus to establish a standard curve for quantification with an upper limit of 200%. […] Total well fluorescence above background was quantified with ImageJ software. For each virus, samples were quantified by nonlinear regression against the standard curve using Prism software (GraphPad Software, Inc., La Jolla, CA).

[1] = ref [40], [44]; cited from earlier work
From the text: The extensive difference density attributable to HD5 in our cryoEM analysis of Ad5.F35+HD5 is consistent with our estimated stoichiometry. HD5 binding sites were found on all of the major proteins of the capsid. […] The accumulation of HD5 difference density was not equal among the four unique hexon positions in the asymmetric unit but rather was greatest on the peripentonal hexons. Since the possible binding sites presented by each hexon a ...

HAdV-5 capsid = settings: previous observation; cited from earlier work
From the text: Therefore, we considered which of the multiple binding sites visualized by cryoEM might lead to enhanced virion stability. We reasoned that we might find a negatively charged region o ... || Based on our combined functional and structural studies, we propose a model for neutralization in which α-defensins bind to critical capsid determinants at the point of contact between fiber and penton base, thereby preventing fiber release. One implication of this model is that fiber dissociation is absolutely required for subsequent uncoating events. This model cannot distinguish between the dissociation of fiber and penton base from the capsid independently or together as a complex. In the first case, defensin may actively lock the fiber onto the penton base. Alternatively, HD5 may obstruct ...

HAdV-41 = assay: Infection assay (hexon staining), HAdV-41; assay type: cell-based, human adenovirus; settings: 15 µM HD5, A549 cells
Method: To determine whether sensitivity to α-defensins is a general property of HAdVs, serotypes representative of HAdV species A–F were tested for infectivity in the presence of 15 µM HD5 or HNP1 (Figure 1). Wild type HAdVs rather than vectors were used for these studies, and infectivity was assessed by staining for hexon production. […] These studies indicate that sensitivity to α-defensins is species specific. In addition, particular HAdV serotypes are not equally sensitive to all defensins, indicating defensin sequence specificity as well.
Figure 1 Sensitivity to neutralization by alpha-defensins is AdV species specific. HAdVs were incubated with 15 µM HD5 (A) or HNP1 (B) and assessed for infectivity on A549 cells. Data are the mean of the percent infectivity compared to control cells infected with each virus in the absence of defensin for at least three independent experiments ± SD. The upper limit for quantification of this assay is 200%. […]
as §1

B1: HD5: human alpha-defensin; synthetic, obtained from Peptides International; three disulfide bonds (PDB 1ZMP) (peptide, UniProt Q01523 20-94, looked up)
Defensin alpha 5: ESLQERADEATTQKQSGEDNQDLAISFAGNGLSALRTSGSQARATCYCRTGRCATRESLSGVCEISGRLYRLCCR
modifications: Defensin-5
antiviral activity against Ad5.eGFP (Ad5.eGFP): only correctly folded HD5 has antiviral activity
sensitivity to HD5 neutralization (19cF; 5 µM and 10 µM HD5, A549 cells, at least three independent experiments, upper limit 200%): completely resistant to neutralization
defensin-resistance at higher HD5 concentration (19cF; 20 µM HD5, data not shown): confirmed the defensin-resistance
concentration at which HD5 forms dimers and tetramers [1]: below 5 µM
effect on capsid proteins upon exposure to heat (HAdV-5 capsid): stabilizes the capsid and prevents dissociation of capsid proteins, including fiber, upon exposure to heat
sensitivity to HD5 (HAdV-41): resistant
